According to patent publication US10660972B2, “Methods for coupling targeting peptides onto recombinant lysosomal enzymes for improved treatments of lysosomal storage diseases” (AMICUS THERAPEUTICS, INC., priority 2011, dated 2020):

Assays:
[1] = tested on: lysosomal enzyme activity (rhGAA, I2S); test: Enzyme activity of lysosomal enzyme after conjugation or deglycosylation; type: biochemical, human; details: after conjugation of variant IGF2 peptide (data not shown)
Text: The high-mannose type N-glycans on rhGAA is problematic because it is believed that these carbohydrates cause the protein to be rapidly cleared from the circulation via macrophage and splenic mannose receptors. […] Deglycosylation of rhGAA can be performed after the enzyme is modified with S-Hynic and purified (via size exclusion chromatography or dialysis to remove excess crosslinker). This strategy allows for complete deglycosylation of rhGAA over 1-5 days using EndoF or EndoH without affecting enzyme activity. The deglycosylated hydrazide-modified rhGAA is then conjugated to PEG4-benzaldehyde-modified IGF-2 peptides. Alternatively, rhGAA deglycosylation can be performed concurrently during the conjugation of PEG4-benzaldehyde-modified IGF-2 peptide to hydrazide-modified rhGAA using high concentrations of EndoF or EndoH. Deglycosylated, IGF2 peptide-conjugated rhGAA is then purified by gel filtration chromatography or dialysis to remove excess phosphine-modified IGF-2 peptides and stored in acidic pH buffer (50 mM sodium phosphate, pH 6.2/100 mM NaCl/0.05% Polysorbate-80). […]
To assess the functional effects of IGF2 peptide for the cellular uptake of exogenous lysosomal enzymes, the internalization of IGF2-conjugated rbGAA (vIGF2-rhGAA) was evaluated in L6 rat skeletal muscle myoblasts. […]

Fabry disease = details: 1 mg/kg body weight every other week; cited from earlier work
IGF-2/CI-MPR = IGF-2/CI-MPR (Homo sapiens, UniProt P11717); details: ligand affinity for IGF-2/CI-MPR; read-out: Binding Affinity (Apparent Kd; nM); cited from earlier work
Chain of IGF-2/CI-MPR (P11717 41-2491): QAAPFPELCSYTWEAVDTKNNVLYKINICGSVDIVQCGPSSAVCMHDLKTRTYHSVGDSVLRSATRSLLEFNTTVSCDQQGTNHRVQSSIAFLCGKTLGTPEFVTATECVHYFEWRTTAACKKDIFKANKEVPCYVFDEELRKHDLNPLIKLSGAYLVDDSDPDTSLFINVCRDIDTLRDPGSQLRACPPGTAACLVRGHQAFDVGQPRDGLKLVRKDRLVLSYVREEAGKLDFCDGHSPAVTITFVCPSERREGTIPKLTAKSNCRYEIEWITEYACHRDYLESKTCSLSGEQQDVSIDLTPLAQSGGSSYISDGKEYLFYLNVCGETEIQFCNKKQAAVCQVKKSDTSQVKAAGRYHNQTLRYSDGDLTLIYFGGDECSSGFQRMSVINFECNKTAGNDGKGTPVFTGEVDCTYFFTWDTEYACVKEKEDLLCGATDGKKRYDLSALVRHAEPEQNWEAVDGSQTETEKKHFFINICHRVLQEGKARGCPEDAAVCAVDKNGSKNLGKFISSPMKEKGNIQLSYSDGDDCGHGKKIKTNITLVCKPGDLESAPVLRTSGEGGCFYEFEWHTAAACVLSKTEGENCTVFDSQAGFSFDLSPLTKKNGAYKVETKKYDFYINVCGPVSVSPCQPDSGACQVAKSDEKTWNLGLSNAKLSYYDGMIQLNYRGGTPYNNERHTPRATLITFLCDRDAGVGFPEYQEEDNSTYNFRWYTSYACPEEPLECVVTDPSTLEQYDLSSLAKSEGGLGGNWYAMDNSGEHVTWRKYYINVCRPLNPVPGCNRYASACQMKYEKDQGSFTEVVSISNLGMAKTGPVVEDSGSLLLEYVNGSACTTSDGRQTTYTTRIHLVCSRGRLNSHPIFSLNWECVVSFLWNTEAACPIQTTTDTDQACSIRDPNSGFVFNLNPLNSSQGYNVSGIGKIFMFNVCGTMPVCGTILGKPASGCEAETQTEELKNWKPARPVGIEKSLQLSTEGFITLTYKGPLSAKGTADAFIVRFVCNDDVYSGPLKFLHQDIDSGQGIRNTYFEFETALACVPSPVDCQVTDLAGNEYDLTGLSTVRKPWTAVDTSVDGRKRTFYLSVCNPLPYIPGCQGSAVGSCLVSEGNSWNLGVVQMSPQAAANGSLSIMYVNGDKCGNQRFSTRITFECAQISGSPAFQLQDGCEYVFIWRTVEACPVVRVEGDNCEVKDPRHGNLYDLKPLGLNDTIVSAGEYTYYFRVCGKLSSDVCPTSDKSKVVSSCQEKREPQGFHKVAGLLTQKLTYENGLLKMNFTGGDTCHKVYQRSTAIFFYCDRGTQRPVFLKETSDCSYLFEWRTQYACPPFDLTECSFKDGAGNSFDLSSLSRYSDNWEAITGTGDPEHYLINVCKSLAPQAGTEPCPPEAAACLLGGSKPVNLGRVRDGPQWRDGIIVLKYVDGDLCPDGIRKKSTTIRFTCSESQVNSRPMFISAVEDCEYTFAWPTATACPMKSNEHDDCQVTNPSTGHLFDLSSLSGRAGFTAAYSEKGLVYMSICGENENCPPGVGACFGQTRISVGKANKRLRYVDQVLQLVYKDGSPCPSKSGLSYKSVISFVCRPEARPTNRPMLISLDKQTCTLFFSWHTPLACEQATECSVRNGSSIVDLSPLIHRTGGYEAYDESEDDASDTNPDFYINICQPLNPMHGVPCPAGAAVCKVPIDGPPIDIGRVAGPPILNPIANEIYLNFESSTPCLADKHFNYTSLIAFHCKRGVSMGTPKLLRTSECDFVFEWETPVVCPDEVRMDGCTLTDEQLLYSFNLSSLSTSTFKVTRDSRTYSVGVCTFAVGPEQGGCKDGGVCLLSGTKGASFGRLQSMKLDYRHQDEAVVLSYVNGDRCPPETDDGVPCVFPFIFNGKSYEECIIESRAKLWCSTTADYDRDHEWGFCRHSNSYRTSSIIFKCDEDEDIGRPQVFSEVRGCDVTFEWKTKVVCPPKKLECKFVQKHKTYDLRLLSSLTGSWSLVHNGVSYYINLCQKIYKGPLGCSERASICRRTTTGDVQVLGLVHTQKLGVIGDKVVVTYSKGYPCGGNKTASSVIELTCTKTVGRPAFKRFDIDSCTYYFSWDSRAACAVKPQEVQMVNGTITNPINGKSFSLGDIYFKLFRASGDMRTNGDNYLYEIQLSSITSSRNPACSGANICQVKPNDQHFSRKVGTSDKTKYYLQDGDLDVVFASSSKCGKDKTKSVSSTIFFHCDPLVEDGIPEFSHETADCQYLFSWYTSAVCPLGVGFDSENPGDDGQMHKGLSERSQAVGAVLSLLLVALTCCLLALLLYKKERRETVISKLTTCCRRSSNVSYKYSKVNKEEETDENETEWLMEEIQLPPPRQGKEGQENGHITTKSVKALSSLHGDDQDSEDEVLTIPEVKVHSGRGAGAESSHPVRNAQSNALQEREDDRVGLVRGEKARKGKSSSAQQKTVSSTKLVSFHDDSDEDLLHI

B1: I2S: Recombinant human acid iduronidate 2-sulfatase (protein, UniProt P22304 34-455; P22304 456-550, looked up)
Iduronate 2-sulfatase 42 kDa …: TDALNVLLIIVDDLRPSLGCYGDKLVRSPNIDQLASHSLLFQNAFAQQAVCAPSRVSFLTGRRPDTTRLYDFNSYWRVHAGNFSTIPQYFKENGYVTMSVGKVFHPGISSNHTDDSPYSWSFPPYHPSSEKYENTKTCRGPDGELHANLLCPVDVLDVPEGTLPDKQSTEQAIQLLEKMKTSASPFFLAVGYHKPHIPFRYPKEFQKLYPLENITLAPDPEVPDGLPPVAYNPWMDIRQREDVQALNISVPYGPIPVDFQRKIRQSYFASVSYLDTQVGRLLSALDDLQLANSTIIAFTSDHGWALGEHGEWAKYSNFDVATHVPLIFYVPGRTASLPEAGEKLFPYLDPFDSASQLMEPGRQSMDLVELVSLFPTLAGLAGLQVPPRCPVPSFHVELCREGKNLLKHFRFRDLEEDPYLPG
Iduronate 2-sulfatase 14 kDa …: NPRELIAYSQYPRPSDIPQWNSDKPSLKDIKIMGYSIRTIDYRYTVWVGFNPDEFLANFSDIHAGELYFVDSDPLQDHNMYNDSQGGDLFQLLMP
[1]
  effect of chemical conjugation of variant IGF2 peptide on enzyme activity: did not affect enzyme activity

B2: Fabrazyme: recombinant acid α-galactosidase A; Genzyme Corp. (protein, UniProt P06280 32-429, looked up)
Alpha-galactosidase A: LDNGLARTPTMGWLHWERFMCNLDCQEEPDSCISEKLFMEMAELMVSEGWKDAGYEYLCIDDCWMAPQRDSEGRLQADPQRFPHGIRQLANYVHSKGLKLGIYADVGNKTCAGFPGSFGYYDIDAQTFADWGVDLLKFDGCYCDSLENLADGYKHMSLALNRTGRSIVYSCEWPLYMWPFQKPNYTEIRQYCNHWRNFADIDDSWKSIKSILDWTSFNQERIVDVAGPGGWNDPDMLVIGNFGLSWNQQVTQMALWAIMAAPLFMSNDLRHISPQAKALLQDKDVIAINQDPLGKQGYQLRQGDNFEVWERPLSGLAWAVAMINRQEIGGPRSYTIAVASLGKGVACNPACFITQLLPVKRKLGFYEWTSRLRSHINPTGTVLLQLENTMQMSLKDLL
Fabry disease
  clinical effectiveness in Fabry disease: sufficient to clear accumulated substrate from endothelial cells

B3: beta-galactosidase: lysosomal enzyme listed as ligand of IGF-2/CI-MPR (protein, UniProt P16278 29-677, looked up)
Beta-galactosidase: QRMFEIDYSRDSFLKDGQPFRYISGSIHYSRVPRFYWKDRLLKMKMAGLNAIQTYVPWNFHEPWPGQYQFSEDHDVEYFLRLAHELGLLVILRPGPYICAEWEMGGLPAWLLEKESILLRSSDPDYLAAVDKWLGVLLPKMKPLLYQNGGPVITVQVENEYGSYFACDFDYLRFLQKRFRHHLGDDVVLFTTDGAHKTFLKCGALQGLYTTVDFGTGSNITDAFLSQRKCEPKGPLINSEFYTGWLDHWGQPHSTIKTEAVASSLYDILARGASVNLYMFIGGTNFAYWNGANSPYAAQPTSYDYDAPLSEAGDLTEKYFALRNIIQKFEKVPEGPIPPSTPKFAYGKVTLEKLKTVGAALDILCPSGPIKSLYPLTFIQVKQHYGFVLYRTTLPQDCSNPAPLSSPLNGVHDRAYVAVDGIPQGVLERNNVITLNITGKAGATLDLLVENMGRVNYGAYINDFKGLVSNLTLSSNILTDWTIFPLDTEDAVRSHLGGWGHRDSGHHDEAWAHNSSNYTLPAFYMGNFSIPSGIPDLPQDTFIQFPGWTKGQVWINGFNLGRYWPARGPQLTLFVPQHILMTSAPNTITVLELEWAPCSSDDPELCAVTFVDRPVIGSSVTYDHPSKPVEKRLMPPPPQKNKDSWLDHV
IGF-2/CI-MPR
  Kd: 20 nM
